For one molecule, stoichiometry N results are on record in paper doi:10.1101/589580.

The assay deals with T1, endogenous ZO1 with N-terminal mNeonGreen (CRISPR knock-in, MDCK-II) (dog (endogenous in MDCK-II)), O97758.
T1 chain: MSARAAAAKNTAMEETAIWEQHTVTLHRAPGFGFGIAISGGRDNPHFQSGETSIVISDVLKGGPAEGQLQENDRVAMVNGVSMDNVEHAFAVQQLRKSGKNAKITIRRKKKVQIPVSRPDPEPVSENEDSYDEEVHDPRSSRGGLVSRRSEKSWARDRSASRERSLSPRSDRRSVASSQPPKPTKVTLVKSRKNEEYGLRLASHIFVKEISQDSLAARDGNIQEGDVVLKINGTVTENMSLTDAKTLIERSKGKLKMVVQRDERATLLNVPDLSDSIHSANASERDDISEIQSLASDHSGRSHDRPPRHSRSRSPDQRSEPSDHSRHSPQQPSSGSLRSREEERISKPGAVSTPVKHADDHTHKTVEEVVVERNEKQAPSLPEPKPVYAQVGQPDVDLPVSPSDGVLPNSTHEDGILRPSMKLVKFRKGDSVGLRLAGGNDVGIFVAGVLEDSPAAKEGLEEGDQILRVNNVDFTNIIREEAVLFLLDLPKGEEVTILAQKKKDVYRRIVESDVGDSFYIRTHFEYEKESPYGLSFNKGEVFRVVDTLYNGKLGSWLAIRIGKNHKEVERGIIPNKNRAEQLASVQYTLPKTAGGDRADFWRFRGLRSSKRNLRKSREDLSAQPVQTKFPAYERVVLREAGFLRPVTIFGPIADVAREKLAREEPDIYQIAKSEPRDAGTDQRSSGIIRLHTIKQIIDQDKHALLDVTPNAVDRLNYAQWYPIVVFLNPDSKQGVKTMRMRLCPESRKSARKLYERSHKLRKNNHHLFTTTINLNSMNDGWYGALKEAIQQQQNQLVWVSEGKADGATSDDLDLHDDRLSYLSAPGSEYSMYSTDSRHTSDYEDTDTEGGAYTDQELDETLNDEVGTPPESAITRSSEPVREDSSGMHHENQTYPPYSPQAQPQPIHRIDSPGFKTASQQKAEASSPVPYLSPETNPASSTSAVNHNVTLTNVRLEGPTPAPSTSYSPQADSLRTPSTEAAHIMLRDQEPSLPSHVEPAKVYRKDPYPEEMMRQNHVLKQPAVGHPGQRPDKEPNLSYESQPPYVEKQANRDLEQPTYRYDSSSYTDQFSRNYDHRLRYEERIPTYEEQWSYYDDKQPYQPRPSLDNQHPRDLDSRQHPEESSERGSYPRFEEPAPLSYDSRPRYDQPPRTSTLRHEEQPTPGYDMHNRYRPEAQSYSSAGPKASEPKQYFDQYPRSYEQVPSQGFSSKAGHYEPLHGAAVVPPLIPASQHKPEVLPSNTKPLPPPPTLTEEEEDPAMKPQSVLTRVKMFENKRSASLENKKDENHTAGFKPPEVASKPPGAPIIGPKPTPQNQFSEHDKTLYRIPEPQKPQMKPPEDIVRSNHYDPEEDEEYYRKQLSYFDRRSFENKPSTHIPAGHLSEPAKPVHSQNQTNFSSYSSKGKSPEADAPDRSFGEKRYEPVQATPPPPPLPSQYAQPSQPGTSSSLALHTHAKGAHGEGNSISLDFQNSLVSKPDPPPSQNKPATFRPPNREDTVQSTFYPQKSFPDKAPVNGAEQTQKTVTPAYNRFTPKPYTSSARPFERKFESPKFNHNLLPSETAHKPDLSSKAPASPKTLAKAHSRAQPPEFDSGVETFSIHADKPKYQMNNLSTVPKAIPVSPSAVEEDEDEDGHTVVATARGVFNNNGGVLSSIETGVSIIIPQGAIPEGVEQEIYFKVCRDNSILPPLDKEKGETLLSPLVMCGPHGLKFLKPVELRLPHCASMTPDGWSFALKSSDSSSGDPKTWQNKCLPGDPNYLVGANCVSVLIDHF
Put plainly: FCS molecular brightness. To be noted: remark: other sources report otherwise.

B1: endogenous ZO1 with N-terminal mNeonGreen (CRISPR knock-in, MDCK-II), O97758 1-1769 (natural protein)
chain: MSARAAAAKNTAMEETAIWEQHTVTLHRAPGFGFGIAISGGRDNPHFQSGETSIVISDVLKGGPAEGQLQENDRVAMVNGVSMDNVEHAFAVQQLRKSGKNAKITIRRKKKVQIPVSRPDPEPVSENEDSYDEEVHDPRSSRGGLVSRRSEKSWARDRSASRERSLSPRSDRRSVASSQPPKPTKVTLVKSRKNEEYGLRLASHIFVKEISQDSLAARDGNIQEGDVVLKINGTVTENMSLTDAKTLIERSKGKLKMVVQRDERATLLNVPDLSDSIHSANASERDDISEIQSLASDHSGRSHDRPPRHSRSRSPDQRSEPSDHSRHSPQQPSSGSLRSREEERISKPGAVSTPVKHADDHTHKTVEEVVVERNEKQAPSLPEPKPVYAQVGQPDVDLPVSPSDGVLPNSTHEDGILRPSMKLVKFRKGDSVGLRLAGGNDVGIFVAGVLEDSPAAKEGLEEGDQILRVNNVDFTNIIREEAVLFLLDLPKGEEVTILAQKKKDVYRRIVESDVGDSFYIRTHFEYEKESPYGLSFNKGEVFRVVDTLYNGKLGSWLAIRIGKNHKEVERGIIPNKNRAEQLASVQYTLPKTAGGDRADFWRFRGLRSSKRNLRKSREDLSAQPVQTKFPAYERVVLREAGFLRPVTIFGPIADVAREKLAREEPDIYQIAKSEPRDAGTDQRSSGIIRLHTIKQIIDQDKHALLDVTPNAVDRLNYAQWYPIVVFLNPDSKQGVKTMRMRLCPESRKSARKLYERSHKLRKNNHHLFTTTINLNSMNDGWYGALKEAIQQQQNQLVWVSEGKADGATSDDLDLHDDRLSYLSAPGSEYSMYSTDSRHTSDYEDTDTEGGAYTDQELDETLNDEVGTPPESAITRSSEPVREDSSGMHHENQTYPPYSPQAQPQPIHRIDSPGFKTASQQKAEASSPVPYLSPETNPASSTSAVNHNVTLTNVRLEGPTPAPSTSYSPQADSLRTPSTEAAHIMLRDQEPSLPSHVEPAKVYRKDPYPEEMMRQNHVLKQPAVGHPGQRPDKEPNLSYESQPPYVEKQANRDLEQPTYRYDSSSYTDQFSRNYDHRLRYEERIPTYEEQWSYYDDKQPYQPRPSLDNQHPRDLDSRQHPEESSERGSYPRFEEPAPLSYDSRPRYDQPPRTSTLRHEEQPTPGYDMHNRYRPEAQSYSSAGPKASEPKQYFDQYPRSYEQVPSQGFSSKAGHYEPLHGAAVVPPLIPASQHKPEVLPSNTKPLPPPPTLTEEEEDPAMKPQSVLTRVKMFENKRSASLENKKDENHTAGFKPPEVASKPPGAPIIGPKPTPQNQFSEHDKTLYRIPEPQKPQMKPPEDIVRSNHYDPEEDEEYYRKQLSYFDRRSFENKPSTHIPAGHLSEPAKPVHSQNQTNFSSYSSKGKSPEADAPDRSFGEKRYEPVQATPPPPPLPSQYAQPSQPGTSSSLALHTHAKGAHGEGNSISLDFQNSLVSKPDPPPSQNKPATFRPPNREDTVQSTFYPQKSFPDKAPVNGAEQTQKTVTPAYNRFTPKPYTSSARPFERKFESPKFNHNLLPSETAHKPDLSSKAPASPKTLAKAHSRAQPPEFDSGVETFSIHADKPKYQMNNLSTVPKAIPVSPSAVEEDEDEDGHTVVATARGVFNNNGGVLSSIETGVSIIIPQGAIPEGVEQEIYFKVCRDNSILPPLDKEKGETLLSPLVMCGPHGLKFLKPVELRLPHCASMTPDGWSFALKSSDSSSGDPKTWQNKCLPGDPNYLVGANCVSVLIDHF
In the case of B1, the stoichiometry N was 5.

For orientation: stoichiometry N means a count of units in the complex or per binding partner.
